Substitutions are numbered along the chain they refer to.
B1: OX40L01E10 (VHH)
VHH: EVQLVESGGGLVQAGDSLRLSCAASGLTFSSFAMGWFRQAPGKEREFVAAISRSGYGTSEADSVRDRFIISRDNAKNTVTLHLSRLKPEDTAVYYCAAEHTLGRPSRSQINYLYWGQGTQVTVSS
notes: monovalent Nanobody from E. coli; not shown: C-terminal c-myc and His6 tag
B2: OX40L18E09 (VHH)
VHH: EVQLVESGGGLVQAGGSLRLSCAASRNILSLNTMGWYRHAPGKPRELVARISSNSKTDYADSVKGRFTISRDNAKNTVLLQMNSLKPEDTGVYYCNLNVWRTSSDYWGQGTQVTVSS
notes: as for B1
B3: OX40L19A07 (VHH)
VHH: EVQLVESGGGLVQAGGSLRLSCAASGFTLDDYAIAWFRQAPGKEREGVSRIKISNGRTTYAGSVKGRFTISSDNAKNTVYLQMNSLNAEDTAVYYCAADRSSLLFGSNWDRKARYDYWGQGTQVTVSS
notes: as for B1

What was measured:
[1] = biological target: T1, cynomolgus OX40L expressed on CHO cells (cynomolgus monkey, UniProt P23510 1-183 (human entry)); experiment: FACS binding to CHO cells, anti-c-myc detection
T1 construct: also called cynoOX40L; CHO-cynoOX40L
T1 chain: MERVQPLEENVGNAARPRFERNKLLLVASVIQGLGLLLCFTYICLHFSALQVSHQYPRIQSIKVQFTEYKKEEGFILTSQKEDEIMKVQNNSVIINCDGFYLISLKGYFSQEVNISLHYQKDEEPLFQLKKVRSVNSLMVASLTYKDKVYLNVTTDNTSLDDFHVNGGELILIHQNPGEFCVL
Method: (§1) Transfection of CHO K1 with the respective expression plasmid DNA and selection of clones with high expression levels was performed as described in Example 1. Binding of the Nanobodies to the cell surface expressed OX40L was assessed by FACS analysis of cells as described below.
(§2) After washing bound Nanobodies were detected in FACSArray™ using mouse anti-c-myc and PE conjugated goat anti-mouse IgG.

[2] = biological target: T2, full length human OX40L expressed on CHO cells (human, UniProt P23510 1-183); experiment: FACS binding to CHO cells, anti-c-myc detection
T2 construct: CHO K1 stably transfected as described for CAKI cells; also called CHO-hOX40L; hOX40L expressing CHO cells
T2 sequence: T1 chain with Q55R, E73K
Method: as §1, §2

[3] = biological target: T3, recombinant human OX40L (extracellular domain, R&D Systems) (human, UniProt P23510 51-183); experiment: SPR, after second injection of buffer HBS-EP+
T3 construct: also called hOX40L; rec. hOX40L
T3 sequence: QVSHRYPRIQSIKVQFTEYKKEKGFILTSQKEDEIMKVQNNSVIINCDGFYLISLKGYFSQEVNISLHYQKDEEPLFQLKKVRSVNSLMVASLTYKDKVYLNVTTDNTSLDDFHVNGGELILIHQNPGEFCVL
Method: (§3) In addition, it was investigated to what extend the 7 anti-OX40L Nanobodies have a different or identical or overlapping epitope. Standard conditions were as described above. […] 1300 RU. A dual injection was performed at 10 μl/min for 2 min, starting with 500 nM of the first Nanobody, followed by 500 nM of the second Nanobody. After 10 min dissociation, regeneration of the surface was performed by injection of 50 mM NaOH for 5-20 sec at 100 μl/min.

[4] = biological target: T3, recombinant human OX40L (extracellular …); experiment: SPR, second injection after competitor OX40L19A07
Method: as §3

[5] = biological target: T4, biotinylated hOX40L (R&D Systems, biotinylated in house) (human, UniProt P23510 51-183, biotinylated with Sulfo-NHS-LC-Biotin, sites not stated); experiment: AlphaScreen, 120 pM biotinylated hOX40L + 0.2 nM hOX40/Fc
T4 construct: same bought protein as m10, biotinylated; also called biotinylated OX40L
T4 sequence: T3 sequence
Method: (§4) Next, streptavidin donor beads were added and incubated for an additional 1 hour. Fluorescence was measured by reading plates on the EnVision Multilabel Plate Reader using an excitation wavelength of 680 nm and an emission wavelength of 520 nm.

[6] = biological target: T2, full length human OX40L expressed on …; experiment: competition FACS, 3.1 nM hOX40/Fc on hOX40L expressing cells
[7] = biological target: T3, recombinant human OX40L (extracellular …); experiment: SPR, second injection after competitor OX40L19D08
Method: as §3

[8] = biological target: T5, human Receptor Activator for Nuclear Factor kappa B Ligand (human, UniProt O14788 143-317, limits assumed); experiment: competition ELISA on neutravidin captured biotinylated hOX40L
T5 construct: also called hRANKL; RANKL
T5 sequence (looked up): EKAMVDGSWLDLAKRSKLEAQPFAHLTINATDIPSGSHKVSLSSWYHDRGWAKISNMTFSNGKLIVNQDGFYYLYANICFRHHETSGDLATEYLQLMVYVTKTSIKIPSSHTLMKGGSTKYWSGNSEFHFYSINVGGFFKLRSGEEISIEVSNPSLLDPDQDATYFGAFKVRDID
Method: (§5) The binding of OX40L blocking Nanobodies to other TNF family members was tested in a competition ELISA.
(§6) Detection was done using sTMB (SDT Reagents, Baesweiler, Germany), the reaction was stopped with 1M HCl and absorbance was determined at 450 nm.

[9] = biological target: T6, human tumor necrosis factor-related apoptosis inducing ligand (human, UniProt P50591 114-281); experiment: as above
T6 construct: also called hTRAIL; TRAIL
Method: as §5, §6

hCD40L = biological target: T7, hCD40L (human, UniProt P29965 113-261); experiment: as above
T7 sequence (looked up): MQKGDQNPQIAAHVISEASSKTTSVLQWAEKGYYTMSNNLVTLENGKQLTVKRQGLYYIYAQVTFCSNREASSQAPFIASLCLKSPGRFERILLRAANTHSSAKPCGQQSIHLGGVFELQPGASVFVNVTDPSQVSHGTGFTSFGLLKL
Method: as §5, §6

hTNF-alpha = hTNF-alpha (human, UniProt P01375 77-233); experiment: as above
Method: as §5, §6

hCD30L = biological target: T8, hCD30L (human, UniProt P32971 63-234); experiment: as above
T8 sequence (looked up): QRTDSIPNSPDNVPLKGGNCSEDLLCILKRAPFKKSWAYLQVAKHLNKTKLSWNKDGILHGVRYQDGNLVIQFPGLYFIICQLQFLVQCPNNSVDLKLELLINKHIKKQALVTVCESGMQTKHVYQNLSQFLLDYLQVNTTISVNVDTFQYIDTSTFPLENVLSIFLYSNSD
Method: as §5, §6

[10] = biological target: T3, recombinant human OX40L (extracellular …); experiment: SPR, second injection after competitor OX40L18E09
Method: as §3

[11] = biological target: T3, recombinant human OX40L (extracellular …); experiment: SPR, second injection after competitor OX40L15B07
Method: as §3

[12] = biological target: T2, full length human OX40L expressed on …; experiment: cell-based or functional assay
[13] = biological target: T3, recombinant human OX40L (extracellular …); experiment: SPR, second injection after competitor OX40L01E10
Method: as §3

[14] = biological target: T3, recombinant human OX40L (extracellular …); experiment: SPR, second injection after competitor OX40L01B11
Method: as §3

[15] = biological target: T4, biotinylated hOX40L (R&D Systems, …); experiment: AlphaScreen, 31 pM biotinylated hOX40L + 80 pM OX40/Fc
Method: as §4

[16] = biological target: T2, full length human OX40L expressed on …; experiment: competition FACS with hOX40/Fc on CHO-hOX40L
Method: The competition FACS assay was performed as described in example 2.

[17] = biological target: T3, recombinant human OX40L (extracellular …); experiment: SPR, second injection after competitor OX40L01E07
Method: as §3

Chain of hTNF-alpha (P01375 77-233 limits assumed): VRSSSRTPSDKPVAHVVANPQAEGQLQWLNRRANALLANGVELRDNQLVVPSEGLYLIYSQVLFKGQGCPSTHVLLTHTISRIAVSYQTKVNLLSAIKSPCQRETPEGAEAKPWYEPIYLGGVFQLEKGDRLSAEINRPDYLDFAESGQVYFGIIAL
T6 sequence (P50591 114-281 limits assumed): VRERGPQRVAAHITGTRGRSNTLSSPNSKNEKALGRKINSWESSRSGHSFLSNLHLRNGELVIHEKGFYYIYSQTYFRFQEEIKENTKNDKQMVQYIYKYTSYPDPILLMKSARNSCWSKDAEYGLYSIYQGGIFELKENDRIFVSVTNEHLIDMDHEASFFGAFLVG

Row | Binder | EC50 [1] | EC50 [2] | Binding Level sample 2 (RU) [3] | Binding Level sample 2 - sample 1 (RU) [3] | Binding Level sample 2 (RU) [4] | Binding Level sample 2 - sample 1 (RU) [4] | IC50 [5] | IC50 [6] | Binding Level sample 2 (RU) [7] | Binding Level sample 2 - sample 1 (RU) [7] | binding result [8] | binding result [9] | binding result (hCD40L) | binding result (hTNF-alpha) | binding result (hCD30L) | Binding Level sample 2 (RU) [10] | Binding Level sample 2 - sample 1 (RU) [10] | Binding Level sample 2 (RU) [11] | Binding Level sample 2 - sample 1 (RU) [11] | IC50, IL4 production, T-cell activation assay, donor 1 [12] | also measured
1 | B1 | 5.54 nM | 3.77 nM | 185 RU | -26 RU | 183 RU | 17 RU | 0.49 nM | 9.11 nM | 202 RU | -13 RU | no binding (tested: starting from 100 fold molar excess) | no binding (tested: starting from 100 fold molar excess) | no binding (tested: starting from 100 fold molar excess) | no binding (tested: starting from 100 fold molar excess) | no binding (tested: starting from 100 fold molar excess) | 176 RU | -2 RU | 190 RU | 5 RU | 110 nM | IC50, IL4 production, T-cell activation assay, donor 2 [12]: 159 nM; IC50, IL4 production, T-cell activation assay, donor 3 [12]: 27 nM; IC50, IL4 production, T-cell activation assay, donor 4 [12]: 12 nM; Binding Level sample 2 (RU) [13]: 215 RU; Binding Level sample 2 - sample 1 (RU) [13]: 8 RU; Binding Level sample 2 (RU) [14]: 342 RU; Binding Level sample 2 - sample 1 (RU) [14]: -7 RU; IC50 [15]: 0.264 nM; IC50 [16]: 12 nM; Binding Level sample 2 (RU) [17]: 193 RU; Binding Level sample 2 - sample 1 (RU) [17]: 5 RU
2 | B2 | 3.8 nM | 2.26 nM | 168 RU | -16 RU | 206 RU | 30 RU | 0.112 nM | 1.73 nM | 225 RU | -3 RU | no binding (tested: starting from 100 fold molar excess) | no binding (tested: starting from 100 fold molar excess) | no binding (tested: starting from 100 fold molar excess) | no binding (tested: starting from 100 fold molar excess) | no binding (tested: starting from 100 fold molar excess) | 195 RU | 5 RU | 207 RU | 11 RU | 36 nM | IC50, IL4 production, T-cell activation assay, donor 2 [12]: 45 nM; IC50, IL4 production, T-cell activation assay, donor 3 [12]: 36 nM; IC50, IL4 production, T-cell activation assay, donor 4 [12]: 49 nM; Binding Level sample 2 (RU) [13]: 245 RU; Binding Level sample 2 - sample 1 (RU) [13]: 21 RU; Binding Level sample 2 (RU) [14]: 312 RU; Binding Level sample 2 - sample 1 (RU) [14]: -7 RU; IC50 [15]: 0.041 nM; IC50 [16]: 2 nM; Binding Level sample 2 (RU) [17]: 200 RU; Binding Level sample 2 - sample 1 (RU) [17]: 15 RU
3 | B3 | 5.34 nM | 5.67 nM | 160 RU | -15 RU | 183 RU | 6 RU | 0.54 nM | 16.6 nM | 205 RU | -24 RU | no binding (tested: starting from 100 fold molar excess) | no binding (tested: starting from 100 fold molar excess) | no binding (tested: starting from 100 fold molar excess) | no binding (tested: starting from 100 fold molar excess) | no binding (tested: starting from 100 fold molar excess) | 194 RU | 2 RU | 207 RU | 9 RU | 596 nM | IC50, IL4 production, T-cell activation assay, donor 2 [12]: 618 nM; Binding Level sample 2 (RU) [13]: 239 RU; Binding Level sample 2 - sample 1 (RU) [13]: 12 RU; Binding Level sample 2 (RU) [14]: 371 RU; Binding Level sample 2 - sample 1 (RU) [14]: 70 RU; IC50 [15]: 0.355 nM; IC50 [16]: 13 nM; Binding Level sample 2 (RU) [17]: 179 RU; Binding Level sample 2 - sample 1 (RU) [17]: -3 RU

Source: US20150218281A1 (Ablynx, published 2015)
